The nature of this series: soluble on expression in E. coli; label from the status in PepcDB or PDB records.
Turning to “MGSDKIHHHHHHMLKQLYLTVLRWRPYKHKKVKIVYIMSFPRNDGHLIEQLEQHYHGMIIVLYTKNCQSYAASLNQKGIKTILFDKKTLLITTAISYLKSAPLIFVDNYFPELAILKKKQVVIQLWHANGALKQFGWGAYHTKHRSSKDQIRFQKVYDKMNYFIVNSLKMEAIFRNNYRLENAQFCHFGSPRLAYLEKLEVGETNQNNKVLYAPTYREGMNEMMLVINQAIKAFSAMPNFHFYMKLHPSIQLDAIELPRNVSIWEKHIFESFSEIGYLITDYSSVVFEYMHVKEQPNILFFCPDLEKYALNPGIEPDFFEYLPGPLVENEKQLIVALSNFSINSYKDNITRINEEWNQYQSKETINKIVELVERILGGFCEK”, the “soluble on expression in E. coli” value is “not soluble”.
For “SPEAQTEIEESILEEYAIWRKNTPFLYDLVVTKPLEWPSLTCQWLPEKREFPNSDYYLEKIILGTQTDGNAQNYLMLAQVRLPNEKAEVDGSAYNNKENGSYGGFGMGQQGKIDIVQRIKHDGDVNRARYMPQNPQIIATKTVSGEVHIFDISKHPLKPPANNVASPQLRLRSPQKEGFGLCWNPNQEGRIISAGEDRRIFLWDILGGGDKEEYVNPLNVYGGHTDVVGDVSFHAHSQYLFGSVGDDRKIMLWDTRSSDVEHPSQEVEAHKDVINCLAFNPFSEHVLITGSADTTLCLWDLRSLNQPLHVFESHPGEILQALWSPFHETLFASCGKDRQVRIWDLSRIGEEQEPEDAEDGPPELLFVHGGHTSTVQELSWNPNEPFVIASVADDNILQLWSMAQHIYEDTDDESMTTELKEEDLE”, the “soluble on expression in E. coli” value is “soluble”.
To “MGSDKIHHHHHHMGRTLGVGTVTPNLIGAHRDLIQRYGGHYPVISAHIWFDGTGLDPRYQYVTVLRDPVDRFISWLYFIDKDVELTEDTRELKVGAQLFLRSEGEETNQTFMRSASNPYVNNFSSVVMRCNASWQQKMVAALSVLTDYDLVGFQADLPQFIEQLAKLLHVINYVSLRPVNVTSSRPQRDGISEKMLHAIRKLTEWDLELYSEIQRMANRQAPTIGVSCNIQPFNREFGDWGFKARKSSNVYWLGSYLTHYLAKDLSTRNGSVAGRALVSNGAKGYLCHGPYLDLDPGHYCAVANGVWITRGVTCNADVCSGKGAVLHAEETLVDLGAKGTEWSLPVDFALDEETTSVEFRLMVPDEHQVQLNTVTIVNEKMVMTILGLEPDSHAANRGVEKQNSGSTLIFPVQMSSKIGLRVGTTLQTTGQEGFLCYGPYMTLSRGIYRVNLMGSIGPQGLAGAYADIVCDAGKKGIHNEPLAITPFNEYVDSTVGKPWMFFLEQDVSDLEIRLWVSNQTEINLCGIVLQQIEET” belongs “not soluble”.
For “MAHHHHHHMSTNINEEKCLEGDDIKYEKPDTHKNFWKSFGLNNEAGKLLYHLYGESNKIKPNILSSKHDGDKNKNDKKKEDAKLNTTYRKPQIHYPSLKKKAVKENPIDTIKHRKPLSKILEETQNYDCIKDIPISIGMNRETEKNKLHNIFVEEKCLMVPPSCAPMILTQEEKKEIIEKAQQRYIYINEENKSREEKHIQALRNYKLELIQELNEKRKLLQDIINEDKNIQGNISINQSDKRVSNKGNSYNIIQIKNDIEQCQKSIKKIEDNLNTYE”, the “soluble on expression in E. coli” value is listed as “not soluble”.
Regarding “MGSDKIHHHHHHMEEVIKLNSVDQYNKMYGLETLHPLVTVVDLSKATVFPTHFTLNYGLYALFLKQTKCGDLRYGRQMYDYQEGTVTSFAPGQVVEVKLNDGVRPMSHGILFHPDLIRGTSLGQEIKHYSFFSYASNEALHLSDDEKKIFQDCLDKVQQELSRPIDKHSKRLIARNIELLLDYCMRFYERQFVTRSKVNKDVLMKFEDLLDVYFQSEQSPNEKLPTVKYFADKVNLSSNYFGDLIKKETGKTAQEYIQGKIINIAKERILASEKTVSEIAYELGFQYPQHFTRIFKKVVGCTPTEYRVIQV”, the “soluble on expression in E. coli” value is given as “not soluble”.
Under “MGSDKIHHHHHHMAAVAHVKIDAAGEKRVLYLVDKSGFGGVQTIAYTLMRHGVDERIGMDFFFLRNINDRFGMEDVREPNVFYSRATHRYSLRPFVEILRFIREKKVSILHLNGNKSIILGLVIKKLFQPTIKIIAHEHGGVFDYSRWYAAFLKSFRNSFDLFITISNYRKHFLVERCLVAPSAIRVIDNFVDPARLATASASACGHTDRCDSEGDKPFVIGYVGGLSRIKGCDVLIRALPPLRERLGNFRVMIAGDGPARAELEELVAALGLGDIVSFLGFVDPPGIAYAQFDMMVIPSRSEEGPICLYEAWMMGLPVVASNAPVLNERIRDGETGILFQSDEPCDLAEKIYSVCRNPDVAAHIRAGGSCEAARHTVERYRGDLRDVYLSL” stands “not soluble”.

The values are drawn from the DeepSol protein solubility set.
